# Patent US20230192824A1 (UNITED STATES OF AMERICA AS REPRESENTED BY THE SECRETARY OF …, published 2023)
# Residue numbers refer to the chain shown, from its start.
# T1: dsc19CfaE6xhis (H10407), donor strand complemented recombinant CFA/I fimbrial tip adhesin CfaE (Escherichia coli (ETEC) strain H10407, UniProt P25734 23-360)
# T1 construct: also called dscCfaE; primary CfaE
# T1 sequence: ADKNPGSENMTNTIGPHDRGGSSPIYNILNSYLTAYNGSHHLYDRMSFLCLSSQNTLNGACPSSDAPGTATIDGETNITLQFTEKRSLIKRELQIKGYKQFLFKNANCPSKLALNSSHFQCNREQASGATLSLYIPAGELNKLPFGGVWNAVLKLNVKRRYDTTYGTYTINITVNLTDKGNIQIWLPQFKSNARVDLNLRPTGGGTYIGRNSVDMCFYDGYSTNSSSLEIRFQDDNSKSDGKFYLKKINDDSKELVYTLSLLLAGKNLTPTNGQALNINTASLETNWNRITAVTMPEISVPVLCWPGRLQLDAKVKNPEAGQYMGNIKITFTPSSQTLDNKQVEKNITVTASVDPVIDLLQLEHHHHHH
# T2: dsc19CotD6xhis (C91f), donor strand complemented recombinant CS2 fimbrial tip adhesin CotD (Escherichia coli (ETEC) strain C91f)
# T2 construct: also called dscCotD; CS2 adhesin
# T2 chain: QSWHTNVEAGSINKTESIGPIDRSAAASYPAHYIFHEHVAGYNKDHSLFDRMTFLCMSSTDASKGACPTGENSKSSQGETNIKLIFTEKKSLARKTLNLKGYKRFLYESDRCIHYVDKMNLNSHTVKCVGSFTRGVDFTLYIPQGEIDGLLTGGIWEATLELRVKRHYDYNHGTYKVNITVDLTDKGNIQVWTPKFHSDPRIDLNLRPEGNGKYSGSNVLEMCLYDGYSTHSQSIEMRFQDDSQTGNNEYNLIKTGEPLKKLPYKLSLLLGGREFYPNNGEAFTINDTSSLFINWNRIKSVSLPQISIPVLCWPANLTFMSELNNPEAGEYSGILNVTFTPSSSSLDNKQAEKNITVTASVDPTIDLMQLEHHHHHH
# T3: dsc19CsbD6xhis (WS6788A), donor strand complemented recombinant CS17 fimbrial tip adhesin CsbD (Escherichia coli (ETEC) strain WS6788A)
# T3 construct: also called dscCsbD; primary CsbD
# T3 chain: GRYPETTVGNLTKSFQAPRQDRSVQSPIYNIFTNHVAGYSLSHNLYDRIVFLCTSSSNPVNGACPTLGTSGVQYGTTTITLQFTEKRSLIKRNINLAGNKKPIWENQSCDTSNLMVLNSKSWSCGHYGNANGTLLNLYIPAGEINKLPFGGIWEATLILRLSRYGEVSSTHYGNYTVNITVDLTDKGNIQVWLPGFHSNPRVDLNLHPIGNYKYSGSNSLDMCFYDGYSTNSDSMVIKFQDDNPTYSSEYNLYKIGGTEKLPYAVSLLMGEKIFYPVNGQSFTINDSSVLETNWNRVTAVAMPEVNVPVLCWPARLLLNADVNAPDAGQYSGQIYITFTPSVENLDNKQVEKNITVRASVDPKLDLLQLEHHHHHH
# T4: CotD, tip adhesin of CS2 fimbriae on wild type ETEC strain C91f (Escherichia coli (ETEC) strain C91f)
# T4 chain: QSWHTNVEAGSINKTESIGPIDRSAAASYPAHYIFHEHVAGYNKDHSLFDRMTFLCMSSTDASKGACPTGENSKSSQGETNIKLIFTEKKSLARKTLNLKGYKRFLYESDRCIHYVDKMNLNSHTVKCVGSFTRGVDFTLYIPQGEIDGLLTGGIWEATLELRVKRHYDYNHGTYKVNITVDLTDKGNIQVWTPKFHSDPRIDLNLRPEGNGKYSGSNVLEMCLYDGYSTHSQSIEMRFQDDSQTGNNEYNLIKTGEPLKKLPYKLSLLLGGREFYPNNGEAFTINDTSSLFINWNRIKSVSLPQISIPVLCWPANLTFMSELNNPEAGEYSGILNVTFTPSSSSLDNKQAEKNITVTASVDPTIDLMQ
# T5: CsbD L85I, tip adhesin of CS17 fimbriae on wild type ETEC strain WS4240A (Escherichia coli (ETEC) strain WS4240A)
# T5 chain: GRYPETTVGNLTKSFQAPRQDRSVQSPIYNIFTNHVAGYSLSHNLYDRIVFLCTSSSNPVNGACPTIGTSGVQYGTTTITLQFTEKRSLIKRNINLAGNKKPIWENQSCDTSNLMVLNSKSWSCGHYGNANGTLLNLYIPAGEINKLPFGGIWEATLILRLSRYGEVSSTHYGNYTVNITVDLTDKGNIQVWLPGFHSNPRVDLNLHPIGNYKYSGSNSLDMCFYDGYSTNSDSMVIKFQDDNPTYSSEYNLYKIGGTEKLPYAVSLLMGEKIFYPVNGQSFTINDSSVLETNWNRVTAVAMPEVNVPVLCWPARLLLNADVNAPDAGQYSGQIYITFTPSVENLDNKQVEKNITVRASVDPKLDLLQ
# T6: CsbD, tip adhesin of CS17 fimbriae on wild type ETEC strain WS6788A (Escherichia coli (ETEC) strain WS6788A)
# T6 chain: T5 chain with I67L
# T7: CsbD L85I/H144A, tip adhesin of CS17 fimbriae on wild type ETEC strain LSN02-013966/A (Escherichia coli (ETEC) strain …)
# T7 chain: T5 chain with H126A
# T8: CfaE, tip adhesin of CFA/I fimbriae on wild type ETEC strain H10407 (Escherichia coli (ETEC) strain H10407, UniProt P25734 23-360)
# T8 sequence: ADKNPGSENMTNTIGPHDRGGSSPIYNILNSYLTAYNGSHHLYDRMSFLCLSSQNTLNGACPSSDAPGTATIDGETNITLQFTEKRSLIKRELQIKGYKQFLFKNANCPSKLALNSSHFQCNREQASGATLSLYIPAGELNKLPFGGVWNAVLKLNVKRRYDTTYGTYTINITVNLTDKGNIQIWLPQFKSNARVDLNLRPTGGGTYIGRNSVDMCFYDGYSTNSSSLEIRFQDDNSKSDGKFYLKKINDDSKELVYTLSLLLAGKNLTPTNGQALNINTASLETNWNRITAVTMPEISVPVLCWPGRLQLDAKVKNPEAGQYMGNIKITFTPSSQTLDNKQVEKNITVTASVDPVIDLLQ
# B1: anti-CotD mouse mAb P6B8 (antibody, V domains shown)
# VH: QVTLKESGPGILQPSQTLSLTCSFSGFSLSTSGMGVGWIRQPSGKGLEWLSHIWWDDEKRYNPALKSRLTISKDTSSNQVFLKIASVDTADTATYYCARIGDRSGHAGFVYWGQGTLVTVSA
# VL: DIKMTQSPSSMYASLGERVTITCKASQDINSYLSWFQQKPGKSPKTLIYRANRLVDGVPSRFSGSGSGQDYSLTISSLEYEDMGTYYCLQYDEFPYTFGGGTKLEIK
# B2: anti-CsbD mouse mAb P7C2 (antibody, V domains shown)
# VH: EVKLEESGGGLVQPGGSMKLSCAASGFTFSDAWMDWVRQSPEKGLEWVGKIRSEINDHATYYAESVKGRFTISRDDSKSGVYLQMNNLRAEDTGIYYCARDGYYGAMDYWGQGTSVTVSS
# VL: DVQITQSPSYLAASPGETITINCRSNKSISRYLAWYQEKPGKTNKLLIYSGSTLQSGIPSRFSGSGSNTDFTLTISSLEPEDFAMYYCQQHNEYPYTFGSGTKLEIK
# B3: anti-CsbD mouse mAb P9A5 (antibody, V domains shown)
# VH: EVQLQQFGAEVVKPGASVKISCKASGYTFTDYNIDWVKQSHGESLEWIGDISPNSEGTTYNQKFKGQATLTIDKSSTTAYMELRSLTSEDSAVYYCARGSGIWNGLDYWGQGTSVTVSS
# VL: DIVMTQSHKFMSTSVGDRVSITCKASQDVSTAVAWYQQKPGQSPQLLIYSSSYRYVGVPDRFTGSGSGTDFTFTISSVQAEDLAVYYCHQHYSLPYTFGGGTKLEIK
# notes: Isotype n.d
# B4: anti-CfaE mouse mAb P8D10 (antibody, V domains shown)
# VH: QIQLVQSGPELKKPGETVKISCKASGYTFTNYGMNWVKQAPGKGLKWMGWINTYTGQSTYADDFKGRFAFSLETSASTAHLQISNLKNEDAATYFCARMEYGNYENALDYWGQGTSVTVSS
# VL: DIVMTQSHKFMSTSIGDRVSITCKASQDVSTAVVWYQQKPGHSPKLLIYSASYRYTGVPDRFTGSGSGTDFTFTISSVQAEDLAVYYCLQHFSTPRTFGGGTNLEIK
# notes: also called full length P8D10 mAb
# B5: anti-CfaE mouse mAb P5C7 (antibody, V domains shown)
# VH: B4 VH with Q57E, S58P, A61T, H80Y, S84N, N85S, N88T, A91T, L108M, Y110S
# VL: B4 VL with I2T, I15V, H42Q, S93N, T94I, N103K
# Target: T1, dsc19CfaE6xhis (H10407), donor strand …
# Assay: ELISA on coated adhesin
row,Binder,binding result
1,B1,no binding (tested: mAb 2 ug/ml)
2,B2,no binding (tested: mAb 2 ug/ml)
3,B3,no binding (tested: mAb 2 ug/ml)

# Target: T2, dsc19CotD6xhis (C91f), donor strand …
# Assay: ELISA on coated adhesin
row,Binder,binding result
1,B4,no binding (tested: mAb 2 ug/ml)
2,B5,no binding (tested: mAb 2 ug/ml)
3,B2,no binding (tested: mAb 2 ug/ml)
4,B3,no binding (tested: mAb 2 ug/ml)

# Target: T3, dsc19CsbD6xhis (WS6788A), donor strand …
# Assay: ELISA on coated adhesin
row,Binder,binding result
1,B4,no binding (tested: mAb 2 ug/ml)
2,B1,no binding (tested: mAb 2 ug/ml)

# Target: T4, CotD, tip adhesin of CS2 fimbriae on …
# Assay: cell-based or functional assay
row,Binder,MIC in HAI [µg/mL]
1,B4,> 250
2,B1,3
3,B5,> 250
4,B2,> 250
5,B3,> 250

# Target: CooD, tip adhesin of CS1 fimbriae on wild type ETEC strain WS1974A (Escherichia coli (ETEC) strain WS1974A)
# Assay: cell-based or functional assay
row,Binder,MIC in HAI [µg/mL]
1,B4,> 250
2,B1,> 250
3,B5,> 250
4,B2,4
5,B3,4

# Target: T5, CsbD L85I, tip adhesin of CS17 fimbriae …
# Assay: cell-based or functional assay
row,Binder,MIC in HAI [µg/mL]
1,B5,> 250
2,B2,2

# Target: CsfD, tip adhesin of CS4 fimbriae on wild type ETEC strain BANG10-SP (Escherichia coli (ETEC) strain BANG10-SP)
# Assay: cell-based or functional assay
row,Binder,MIC in HAI [µg/mL]
1,B4,> 250
2,B1,> 250
3,B5,> 250
4,B2,> 250
5,B3,> 250

# Target: T6, CsbD, tip adhesin of CS17 fimbriae on …
# Assay: cell-based or functional assay
row,Binder,MIC in HAI [µg/mL]
1,B4,> 250
2,B1,> 250
3,B5,16
4,B2,1
5,B3,4

# Target: T7, CsbD L85I/H144A, tip adhesin of CS17 …
# Assay: cell-based or functional assay
row,Binder,MIC in HAI [µg/mL]
1,B4,> 250
2,B1,> 250
3,B5,> 250
4,B2,1
5,B3,3.9

# Target: CsuD, tip adhesin of CS14 fimbriae on wild type ETEC strain WS3294A (Escherichia coli (ETEC) strain WS3294A)
# Assay: cell-based or functional assay
row,Binder,MIC in HAI [µg/mL]
1,B4,> 250
2,B1,> 250
3,B5,> 250
4,B2,> 250
5,B3,> 250

# Target: T8, CfaE, tip adhesin of CFA/I fimbriae on …
# Assay: cell-based or functional assay
row,Binder,MIC in HAI [µg/mL]
1,B4,1.2
2,B1,> 250
3,B5,1.2
4,B2,> 250
5,B3,> 250

# Target: T8, CfaE, tip adhesin of CFA/I fimbriae on …
# Assay: cell-based or functional assay
# Remark: another data set of the same source
row,Binder,fold reduction of ETEC H10407 binding to Caco-2 cells [fold]
1,B4,> 4
